From the DeepSol protein solubility set

Experiment: soluble on expression in E. coli; label from the status in PepcDB or PDB records

Sequence	soluble on expression in E. coli
MRPVFPLILSAVLFLSCFFGARQTEASASKRAIDANQIVNRMSLDEKLGQMLMPDFRNWQKEGESSPQALTKMNDEVASLVKKYQFGGIILFAENVKTTKQTVQLTDDYQKASPKIPLMLSIDQEGGIVTRLGEGTNFPGNMALGAARSRINAYQTGSIIGKELSALGINTDFSPVVDINNNPDNPVIGVRSFSSNRELTSRLGLYTMKGLQRQDIASALKHFPGHGDTDVDSHYGLPLVSHGQERLREVELYPFQKAIDAGADMVMTAHVQFPAFDDTTYKSKLDGSDILVPATLSKKVMTGLLRQEMGFNGVIVTDALNMKAIADHFGQEEAVVMAVKAGVDIALMPASVTSLKEEQKFARVIQALKEAVKNGDIPEQQINNSVERIISLKIKRGMYPARNSDSTKEKIAKAKKIVGSKQHLKAEKKLAEKAVTVLKNEQHTLPFKPKKGSRILIVAPYEEQTASIEQTIHDLIKRKKIKPVSLSKMNFASQVFKTEHEKQVKEADYIITGSYVVKNDPVVNDGVIDDTISDSSKWATVFPRAVMKAALQHNKPFVLMSLRNPYDAANFEEAKALIAVYGFKGYANGRYLQPNIPAGVMAIFGQAKPKGTLPVDIPSVTKPGNTLYPLGYGLNIKTGRPL	soluble
MGHTMPAHTPPAQTAPAAQKAGAQALPVTVQGATVAAVPPSIRDTAAYMTLTNKSDQPIKLVGAATPLATSPMLMTTTHSGGMAGMKMVPWLTIPARGTLTLQRDGDHVMLMGLKRPLKVGETVNITLKATDGRTLNVAATVKKNIEGR	soluble
MGSDKIHHHHHHMFVGMDFGTTNSAVALAGADGSVEVLNFAAATGAASTLRSVLAFENARRDAQRRILPLAGHEAIEAYLHGDGDCRFLQSFKSYLTSRSFTSTAIYGAPYSLEELVALIIAQLRRTAEAAGAKVERVVAGRPVRFVAEGGEEEDAYATGRLVEAFAKAGITDVVFEYEPIAAAYYYESTLTRDQTVLVADFGGGTSDFCLIRLGPGRAGLARPEDAIIGTAGVGIAGDAFDRRIVEHGLSGHFGKYTTYVSDGKVLPMPAWVYAKLERWHHVAFLNTPSTMRLLRDLLRQVEHPDQVEQLLALIEHNLGYHLYRAVEQAKRDLSSADETVLRFDHDPVVVERRVTRAEFESWIGKELSAIESCVDGLLDGTGTALAQVDRVFLTGGSSLVPAVRAIFANRFGEDRLSAGGEFISVATGLAQRAREMG	not soluble
MSLKLIKGLNLLRPCSDTPFLENAFVVIDGDEFLSVGTTEPEGEFEEVLDCGGKFALPGLINAHHHLYSALAVGMPPPAKTPLNFTQILEEVWWKLDLALDHDATQASFESGLIDSLKAGTTTVIDHHCSPSFIEGSLSLLGDTGKKLGIATGLAFEVTDRNGQELFERSLQENLDAAEKHSQDQELAALLGLHASFTLSEESLKKVAEVHSKRSNWGIHTHLSEDRADEEDARNRGHASVVERLDHFGLINQSAMLIHGVHSLESDAELIQKHKAHLVHNPTSNANNRIGMLSNQAAERMKPGLGTDGMQSNMIREAKEGMLIRSSHMSAGDAGVDYQAILFDHNPRIASAVFGRSIGRVEPGYRADLAIYDYHPRTEVHSDNVFGHVFFGLGEPCDVMSGGLMRVQNHLLQGNDEQAAKQEAAEQSRKLWQKMQEGHHHHHH	soluble
MGSDKIHHHHHHMTSSLQKLFTFDEFLDFLVTQPENIRYELHDGNIIQMPPPLGQHEQIVAFLTMILGYECLRLKLNYGIPKNATVKPENRTSGYYPDVLLINFSNLINEALWEKQSILSHPDSIPLVIEVVSTNWRDDYHKKLADYEEMGIQEYWIVDYAALGSKELIGDPKQPTITIYSLSDEGEYRGKQFRGDDRIESPTFSNLNLKVEQIFHCVIE	not soluble
MKIGFLGFGKSNRSLLKYLLNHQEAKFFVSEAKTLDGETKKFLEEHSVEYEEGGHTEKLLDCDVVYVSPGIKPDTSMIELLSSRGVKLSTELQFFLDNVDPKKVVGITGTDGKSTATALMYHVLSGRGFKTFLGGNFGTPAVEALEGEYDYYVLEMSSFQLFWSERPYLSNFLVLNISEDHLDWHSSFKEYVDSKLKPAFLQTEGDLFVYNKHIERLRNLEGVRSRKIPFWTDENFATEKELIVRGKKYTLPGNYPYQMRENILAVSVLYMEMFNELESFLELLRDFKPLPHRMEYLGQIDGRHFYNDSKATSTHAVLGALSNFDKVVLIMCGIGKKENYSLFVEKASPKLKHLIMFGEISKELAPFVGKIPHSIVENMEEAFEKAMEVSEKGDVILLSPGGASFDMYENYAKRGEHFREIFKRHGGDEV	soluble
